Measurements: patent publication US6906033 (dated 2005)
Read-outs that look alike come from different tables or passages of the source.

How the values were obtained:
Test in all cases: enzyme inhibition
human factor XIIa [1] = target: T1, human factor XIIa (human, UniProt P00748 20-615, biotinylated with Biotin Ester (Zymed); sites not stated)
T1 chain: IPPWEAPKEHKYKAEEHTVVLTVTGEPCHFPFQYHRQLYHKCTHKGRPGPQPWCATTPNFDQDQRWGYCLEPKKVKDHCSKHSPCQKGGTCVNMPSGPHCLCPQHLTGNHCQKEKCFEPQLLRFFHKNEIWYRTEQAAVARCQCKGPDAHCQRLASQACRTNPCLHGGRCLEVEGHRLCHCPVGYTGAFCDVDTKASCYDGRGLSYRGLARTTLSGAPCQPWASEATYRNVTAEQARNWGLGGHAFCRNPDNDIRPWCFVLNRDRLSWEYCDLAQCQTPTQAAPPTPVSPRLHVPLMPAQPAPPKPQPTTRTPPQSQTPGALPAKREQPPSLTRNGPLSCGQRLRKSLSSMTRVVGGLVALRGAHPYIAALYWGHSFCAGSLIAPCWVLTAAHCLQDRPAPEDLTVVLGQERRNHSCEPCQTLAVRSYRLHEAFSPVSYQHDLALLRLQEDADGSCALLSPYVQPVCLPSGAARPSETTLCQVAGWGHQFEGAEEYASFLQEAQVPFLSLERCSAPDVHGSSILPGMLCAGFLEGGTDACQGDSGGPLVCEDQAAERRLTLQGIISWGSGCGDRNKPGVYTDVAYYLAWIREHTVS

human plasma kallikrein [2] = target: T2, human plasma kallikrein (human, UniProt P03952 20-638)
T2 sequence (P03952 20-638): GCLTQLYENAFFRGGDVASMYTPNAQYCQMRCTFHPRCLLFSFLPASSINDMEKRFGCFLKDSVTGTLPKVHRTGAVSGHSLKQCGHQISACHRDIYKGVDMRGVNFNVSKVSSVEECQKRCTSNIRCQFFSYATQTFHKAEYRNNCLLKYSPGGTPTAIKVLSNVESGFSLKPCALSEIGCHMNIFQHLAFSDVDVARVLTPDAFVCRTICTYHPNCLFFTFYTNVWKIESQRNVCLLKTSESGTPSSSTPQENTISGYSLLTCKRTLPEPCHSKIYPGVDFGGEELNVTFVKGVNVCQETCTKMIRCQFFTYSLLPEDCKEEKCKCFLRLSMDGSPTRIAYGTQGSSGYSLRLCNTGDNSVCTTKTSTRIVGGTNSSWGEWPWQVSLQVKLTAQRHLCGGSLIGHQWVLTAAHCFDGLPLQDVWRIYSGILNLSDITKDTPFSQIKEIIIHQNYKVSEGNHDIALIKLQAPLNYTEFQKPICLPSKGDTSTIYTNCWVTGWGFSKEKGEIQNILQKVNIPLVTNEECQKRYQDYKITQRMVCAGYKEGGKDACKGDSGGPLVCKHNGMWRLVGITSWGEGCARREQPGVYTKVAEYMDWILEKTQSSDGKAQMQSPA

human factor XIIa [3] = target: T1, human factor XIIa
human factor Xa [4] = target: T3, human factor Xa (human, UniProt P00742 41-179; P00742 235-488)
T3 chain 1: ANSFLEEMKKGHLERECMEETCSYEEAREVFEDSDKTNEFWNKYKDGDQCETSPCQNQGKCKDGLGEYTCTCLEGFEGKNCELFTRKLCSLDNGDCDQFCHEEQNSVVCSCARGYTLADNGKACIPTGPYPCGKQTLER
T3 chain 2: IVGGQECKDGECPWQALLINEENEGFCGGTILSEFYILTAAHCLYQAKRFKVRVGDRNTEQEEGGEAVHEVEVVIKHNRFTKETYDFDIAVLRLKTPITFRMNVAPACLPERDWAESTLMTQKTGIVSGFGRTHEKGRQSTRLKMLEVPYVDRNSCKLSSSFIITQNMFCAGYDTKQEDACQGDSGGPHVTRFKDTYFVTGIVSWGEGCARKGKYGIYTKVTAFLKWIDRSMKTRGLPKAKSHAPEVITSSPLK

human plasma kallikrein [5] = target: T2, human plasma kallikrein; remark: listed apart in the source
human factor Xa [6] = target: T3, human factor Xa
human factor XIIa [7] = target: T1, human factor XIIa
human plasma kallikrein [8] = target: T2, human plasma kallikrein; remark: listed apart in the source
human factor XIIa [9] = target: T1, human factor XIIa
human factor Xa [10] = target: T3, human factor Xa
human plasma kallikrein [11] = target: T2, human plasma kallikrein; remark: listed apart in the source

B1: TW6202 (protein)
chain: EVVREVCSEQAETGPCRAGIWRWYFDVTEGKCAPFFYGGCGGNRNNFDTEEYCMAVCGSAI
Human factor XIIa [1]
  Ki: 1240 nM
Human plasma kallikrein [2]
  Ki: 128 nM

B2: TW6173 (protein)
chain: EVVREVCSEQAETGPCRAAHSRWYFDVTEGKCAPFFYGGCGGNRNNFDTEEYCMAVCGSAI
Human factor XIIa [3]
  Ki: 1430 nM

B3: TW6151 (protein)
chain: EVVREVCSEQAETGPCRAMISRWYFDVTEGKCAPFFYGGCEGNRNNFDTEEYCMAVCGSAI
Human factor XIIa [3]
  Ki: 1160 nM
Human factor Xa [4]
  Ki: 954 nM
Human plasma kallikrein [5]
  Ki: 163 nM

B4: TW6159 (protein)
chain: EVVREVCSEQAETGPCRAMISRWYFDVTEGKCAPFFYGGCVGNRNNFDTEEYCMAVCGSAI
Human factor Xa [4]
  Ki: 64 nM
Human plasma kallikrein [5]
  Ki: 17 nM

B5: TW6205 (protein)
chain: EVVREVCSEQAETGPCRALISAWYFDVTEGKCAPFFYGGCGGNRNNFDTEEYCMAVCGSAI
Human factor XIIa [1]
  Ki: 195 nM
Human factor Xa [6]
  Ki: 29 nM

B6: TW6153 (protein)
chain: EVVREVCSEQAETGPCRAMISRWYFDVTEGKCAPFFYGGCIGNRNNFDTEEYCMAVCGSAI
Human factor XIIa [3]
  Ki: 65 nM
Human factor Xa [4]
  Ki: 36 nM
Human plasma kallikrein [5]
  Ki: 11.2 nM

B7: TW6161 (protein)
chain: EVVREVCSEQAETGPCRAMISRWYFDVTEGKCAPFFYGGCYGNRNNFDTEEYCMAVCGSAI
Human factor XIIa [3]
  Ki: 1510 nM
Human factor Xa [4]
  Ki: 8.7 nM
Human plasma kallikrein [5]
  Ki: 7.5 nM

B8: DD112 (protein)
chain: EVVREVCSEQAETGPCRAVISRWYFDVTEGKCAPFFYGGCGGNRNNFDTEEYCMAVCGSAI
Human factor XIIa [7]
  Ki: 998 nM
Human plasma kallikrein [8]
  Ki: 6.8 nM

B9: TW6174 (protein)
chain: EVVREVCSEQAETGPCRALHSRWYFDVTEGKCAPFFYGGCGGNRNNFDTEEYCMAVCGSAI
Human factor XIIa [3]
  Ki: 2800 nM

B10: TW6204 (protein)
chain: EVVREVCSEQAETGPCRAAISAWYFDVTEGKCAPFFYGGCGGNRNNFDTEEYCMAVCGSAI
Human factor XIIa [1]
  Ki: 147 nM
Human factor Xa [6]
  Ki: 87 nM

B11: TW6147 (protein)
chain: EVVREVCSEQAETGPCRAMISRWYFDVTEGKCAPFFYGGCAGNRNNFDTEEYCMAVCGSAI
Human factor XIIa [9]
  Ki: 1090 nM
Human factor Xa [10]
  Ki: 179 nM
Human plasma kallikrein [11]
  Ki: 35 nM

B12: DD114 (protein)
chain: EVVREVCSEQAETGPCRAAISRWYFDVTEGKCAPFFYGGCRGNRNNFDTEEYCMAVCGSAI
Human factor XIIa [1]
  Ki: 224 nM
Human plasma kallikrein [2]
  Ki: 0.7 nM

B13: TW6183 (protein)
chain: EVVREVCSEQAETGPCRAMHFRWYFDVTEGKCAPFFYGGCGGNRNNFDTEEYCMAVCGSAI
Human factor XIIa [1]
  Ki: 12400 nM
Human factor Xa [6]
  Ki: 159 nM

B14: TW6178 (protein)
chain: EVVREVCSEQAETGPCRAMISRWYFDVTEGKCAPFFYGGCGRNRNNFDTEEYCMAVCGSAI
Human factor XIIa [3]
  Ki: 444 nM
Human plasma kallikrein [5]
  Ki: 16 nM

B15: BG031 (protein)
chain: EVVREVCSEQAEVGPCRAMISRWYFDVTEGKCAPFFYGGCGGNRNNFDTEEYCMAVCGSAI
Human factor XIIa [7]
  Ki: 498 nM
Human plasma kallikrein [8]
  Ki: 34 nM

B16: TW6203 (protein)
chain: EVVREVCSEQAETGPCRAGIPRWYFDVTEGKCAPFFYGGCGGNRNNFDTEEYCMAVCGSAI
Human factor XIIa [1]
  Ki: 5040 nM
Human plasma kallikrein [2]
  Ki: 31.2 nM

B17: TW6139 (protein)
chain: EVVREVCSEQAETGPCRAMISRWYFDVTEGKCAPFFYGGCHGNRNNFDTEEYCMAVCGSAI
Human factor XIIa [3]
  Ki: 152 nM
Human factor Xa [4]
  Ki: 78 nM
Human plasma kallikrein [5]
  Ki: 19 nM

B18: TW6169 (protein)
chain: EVVREVCSEQAETGPCRALILRWYFDVTEGKCAPFFYGGCGGNRNNFDTEEYCMAVCGSAI
Human factor XIIa [1]
  Ki: 619 nM
Human factor Xa [6]
  Ki: 111 nM
Human plasma kallikrein [2]
  Ki: 1.2 nM

B19: BG002 (protein)
chain: EVVREVCSEQAETGPCRALLSRWYFDVTEGKCAPFFYGGCGGNRNNFDTEEYCMAVCGSAI
Human factor XIIa [3]
  Ki: 403 nM
Human factor Xa [4]
  Ki: 60 nM
Human plasma kallikrein [5]
  Ki: 0.98 nM

B20: DD113 (protein)
chain: EVVREVCSEQAETGPCRALIPRWYFDVTEGKCAPFFYGGCGGNRNNFDTEEYCMAVCGSAI
Human factor XIIa [1]
  Ki: 293 nM
Human factor Xa [6]
  Ki: 74 nM
Human plasma kallikrein [2]
  Ki: 0.85 nM

B21: TW6184 (protein)
chain: EVVREVCSEQAETGPCRAMHYRWYFDVTEGKCAPFFYGGCGGNRNNFDTEEYCMAVCGSAI
Human factor XIIa [1]
  Ki: 14000 nM
Human factor Xa [6]
  Ki: 214 nM

B22: BG032 (protein)
chain: EVVREVCSEQAESGPCRAMISRWYFDVTEGKCAPFFYGGCGGNRNNFDTEEYCMAVCGSAI
Human factor XIIa [7]
  Ki: 731 nM
Human plasma kallikrein [8]
  Ki: 49 nM

B23: TW6201 (protein)
chain: EVVREVCSEQAETGPCRAGIYRWYFDVTEGKCAPFFYGGCGGNRNNFDTEEYCMAVCGSAI
Human factor XIIa [1]
  Ki: 419 nM
Human plasma kallikrein [2]
  Ki: 34.6 nM

B24: TW6179 (protein)
chain: EVVREVCSEQAETGPCRAGISRWYFDVTEGKCAPFFYGGCGGNRNNFDTEEYCMAVCGSAI
Human factor XIIa [7]
  Ki: 368 nM
Human plasma kallikrein [8]
  Ki: 78 nM

B25: TW6190 (protein)
chain: EVVREVCSEQAETGPCRAAISRWYFDVTEGKCAPFFYGGCYGNRNNFDTEEYCMAVCGSAI
Human factor XIIa [1]
  Ki: 589 nM
Human factor Xa [6]
  Ki: 1400 nM
Human plasma kallikrein [2]
  Ki: 0.83 nM

B26: DD101 (protein)
chain: EVVREVCSEQAETGPCRAMISRWYFDVTEGKCAPFFYGGCDGNRNNFDTEEYCMAVCGSAI
Human factor XIIa [3]
  Ki: 924 nM
Human plasma kallikrein [5]
  Ki: 64 nM

B27: BG003 (protein)
chain: EVVREVCSEQAETGPCRAMLHRWYFDVTEGKCAPFFYGGCGGNRNNFDTEEYCMAVCGSAI
Human factor XIIa [1]
  Ki: 467 nM
Human plasma kallikrein [2]
  Ki: 36 nM

B28: TW6175 (protein)
chain: EVVREVCSEQAETGPCRALIFRWYFDVTEGKCAPFFYGGCGGNRNNFDTEEYCMAVCGSAI
Human factor XIIa [1]
  Ki: 35 nM
Human factor Xa [6]
  Ki: 56 nM

B29: DD129 (protein)
chain: EVVREVCSEQAETGPCRALFSRWYFDVTEGKCAPFFYGGCGGNRNNFDTEEYCMAVCGSAI
Human factor XIIa [3]
  Ki: 1860 nM
Human factor Xa [4]
  Ki: 6 nM
Human plasma kallikrein [5]
  Ki: 3.6 nM

B30: TW6208 (protein)
chain: EVVREVCSEQAETGPCRGMISRWYFDVTEGKCAPFFYGGCGGNRNNFDTEEYCMAVCGSAI
Human factor XIIa [7]
  Ki: 369 nM

B31: TW122 (protein)
chain: EVCSEQAETGPCRAMISRWYFDVTEGKCAPFFYGGCGANRNNFDTEEYCMAVCGSAI
Human factor Xa [4]
  Ki: 581 nM
Human plasma kallikrein [5]
  Ki: 32 nM
